In PMC7975240:
pKd: −log10 of the molar value.

Target: SARS-CoV-2 spike trimer (1–1208 aa) (SARS-CoV-2) (UniProt P0DTC2)
Assay: SPR

Toll-like receptor 4 (TLR4) (from UniProt O00206 24-839)
pKd: 6.52
